Data: US6380373B1, “Steroid receptor coactivator compositions and methods of use” (Baylor College of Medicine, priority 1995, dated 2002)

Columns and labels:
[1] = target: T1, hPR (Homo sapiens, UniProt P06401); assay: Transient transfection CAT reporter assay, hPRB with PRE2-TATA-CAT in HeLa cells; format: cell-based
T1 construct: expressed in transfected cells; host or cells: HeLa
T1 sequence (P06401 1-933): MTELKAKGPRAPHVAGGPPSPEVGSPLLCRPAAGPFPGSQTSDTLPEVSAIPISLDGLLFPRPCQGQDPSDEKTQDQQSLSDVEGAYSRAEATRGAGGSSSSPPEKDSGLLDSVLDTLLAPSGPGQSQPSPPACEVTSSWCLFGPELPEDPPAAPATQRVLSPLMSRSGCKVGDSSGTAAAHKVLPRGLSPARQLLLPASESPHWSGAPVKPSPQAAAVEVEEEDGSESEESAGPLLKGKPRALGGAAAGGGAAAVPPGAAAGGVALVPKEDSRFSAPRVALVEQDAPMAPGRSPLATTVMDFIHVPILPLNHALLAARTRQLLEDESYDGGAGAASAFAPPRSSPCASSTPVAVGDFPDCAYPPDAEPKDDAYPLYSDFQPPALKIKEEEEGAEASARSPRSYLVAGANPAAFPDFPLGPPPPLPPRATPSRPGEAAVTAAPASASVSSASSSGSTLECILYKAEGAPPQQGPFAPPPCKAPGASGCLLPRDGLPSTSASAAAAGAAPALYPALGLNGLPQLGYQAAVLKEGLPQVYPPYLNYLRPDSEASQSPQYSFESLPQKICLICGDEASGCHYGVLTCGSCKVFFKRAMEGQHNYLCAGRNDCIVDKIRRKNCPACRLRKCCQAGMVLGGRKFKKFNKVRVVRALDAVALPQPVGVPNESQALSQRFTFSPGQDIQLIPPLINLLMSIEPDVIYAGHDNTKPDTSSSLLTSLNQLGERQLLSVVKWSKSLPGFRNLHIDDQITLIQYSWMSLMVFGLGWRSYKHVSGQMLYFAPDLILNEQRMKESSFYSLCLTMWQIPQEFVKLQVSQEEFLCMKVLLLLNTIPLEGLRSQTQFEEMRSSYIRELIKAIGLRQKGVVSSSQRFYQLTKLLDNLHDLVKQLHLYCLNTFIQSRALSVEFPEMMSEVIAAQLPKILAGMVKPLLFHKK
Protocol: (§1) Lipofectin (GibcoBRL) was selected for transfection of Hela cells.
To further investigate the role of SRC-1 in receptor transactivation of target gene expression, transient transfection assays were carried out in mammalian cell lines. HeLa cells were cotransfected with mammalian expression vectors for full-length SRC-1 and hPRB together with a plasmid containing two copies of the progesterone-responsive DNA element (PRE) inserted in front of the TATA box of the E1b adenovirus, linked to the chloramphenicol acetyl transferase (CAT) reporter gene, PRE2-TATA-CAT.
Cells were harvested 42 h after transfection and the chloramphenicol acetyl transferase (CAT) activity determined using 8 μg of protein extract.

[2] = test system: GAL4-VP16; settings: HeLa cells, UASG element
Protocol: Cells were maintained in Dulbecco's modified Eagle's medium supplemented with 10% (vol/vol) fetal calf serum (Smith, C. L. et al., (1993), Proc. Natl. Acad. Sci. USA 90, 6120-6124). The day before transfection, 10^6 cells were seeded in 100 mm dishes and 4-6 h later switched serum-free medium supplemented with Nutridoma-SR (Boehringer Mannhein). When ER was used for transfections, phenol-red-free medium was used (Smith, C. L. et al., (1993), Proc. Natl. Acad. Sci. USA 90, 6120-6124). HeLa cells were transfected with mammalian expression vectors encoding steroid receptors or other transcription factors along with 5 μg of CAT reporter. Lipofectin (GibcoBRL) was selected for transfection of Hela cells.
Cells were then harvested and proteins prepared as whole-cell extracts by freeze-thaw lysis. The reporter CAT activity in the extract was determined using 100 uCi of [^14C]-chloramphenicol and 4 mM acetyl coenzyme A as substrate and standardized by protein content. Activity of the extract was calculated by determining the percentage of conversion of [^14C]-chloramphenicol to the mono and diacetylated forms (Ausubel, F. M., et al., (1992), Short Protocols In Molecular Biology, New York: Greene Publishing Associates and John Wiley & Sons). […]

[3] = target: T2, GR (Homo sapiens, UniProt P04150); assay: CAT reporter assay GR/PRE2-TATA-CAT in HeLa cells; format: cell-based; settings: 3 μg SRC-1, dexamethasone 2×10^−8 M
T2 construct: expressed in transfected cells; host or cells: HeLa
T2 sequence (P04150 1-777): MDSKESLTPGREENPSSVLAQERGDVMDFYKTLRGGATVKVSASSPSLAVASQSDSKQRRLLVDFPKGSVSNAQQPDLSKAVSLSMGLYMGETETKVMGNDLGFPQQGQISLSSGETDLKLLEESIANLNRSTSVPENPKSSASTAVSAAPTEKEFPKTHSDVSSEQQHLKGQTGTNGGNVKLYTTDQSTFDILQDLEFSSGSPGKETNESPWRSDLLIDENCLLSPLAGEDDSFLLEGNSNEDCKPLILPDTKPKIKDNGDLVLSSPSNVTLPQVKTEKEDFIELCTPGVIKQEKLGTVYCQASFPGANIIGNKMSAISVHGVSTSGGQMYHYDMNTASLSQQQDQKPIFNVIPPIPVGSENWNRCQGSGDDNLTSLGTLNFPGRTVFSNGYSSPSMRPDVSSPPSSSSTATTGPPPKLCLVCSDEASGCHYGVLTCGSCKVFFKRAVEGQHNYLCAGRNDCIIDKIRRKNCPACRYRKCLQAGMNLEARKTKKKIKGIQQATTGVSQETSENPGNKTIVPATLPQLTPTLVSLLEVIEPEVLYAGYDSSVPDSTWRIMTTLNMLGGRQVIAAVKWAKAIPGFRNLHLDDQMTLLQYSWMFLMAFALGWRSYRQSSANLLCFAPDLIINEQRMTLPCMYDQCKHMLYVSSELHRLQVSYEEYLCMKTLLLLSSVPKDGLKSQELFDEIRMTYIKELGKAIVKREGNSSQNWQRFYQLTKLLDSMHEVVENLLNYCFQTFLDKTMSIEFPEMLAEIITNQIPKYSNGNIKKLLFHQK
Protocol: Biol. 13, 6501-6508), Sp1 and Sp1-tk-CAT (Courey, A. J. and Tjian, R. (1988), Cell 55, 887-898), CREB and CRE-tk-CAT (Chrivia, J. C. et al., (1993), Nature 365, 855) and GAL4VP16 and 17mer-tk-CAT (Baniahmad, A. et al., (1992), EMBO J. 11, 1015-1023) have been previously described and the above references are incorporated herein by reference in their entirety, including any drawings.
as §1
HeLa cells were cotransfected with 0.5 μg of cDNAs encoding various steroid receptors indicated and 5 μg of their cognates HREs containing reporters, including PR/PRE2-TATA-CAT, ER/ERE2-TATA-CAT, GR/PRE2-TATA-CAT, TR-/DR4-tk-CAT and RXR/DR1-tk-CAT, along with 3 μg of SRC-1 or empty expression vector. Cells were then treated with their corresponding ligands (PR:R5020, ER:estradiol, GR:dexamethasone, TR:Triac, RXR:9-cis retinoic acid) at a concentration of 2×10^−8M. The CAT activity of the reporter was determined using 14 μg of protein extract.

[4] = target: T1, hPR; assay: Squelching of hPR transactivation by hER and its reversal by SRC-1, CAT assay in HeLa cells; format: cell-based
Protocol: as §1
HeLa cells were transfected with 1 μg of both hPR and hER expression vectors, together with 5 μg of PRE2-TATA-CAT and increasing amounts of SRC-1. Cells were then exposed to ligands R5020 and/or E2 (2×10^−8 M) and CAT activities determined 42 h later using 40 μg of proteins extract. The percentage of chloramphenicol conversion to the mono and diacetylated form was determined and represents the average of three independent experiments (Xn=3±SEM).

B1: steroid receptor coactivator-one (SRC-1), full-length (protein)
chain: MSIPRVNPSVNPSISPAHGVARSSTLPPSNSNMVSTRINRQQSSDLHSSSHSNSSNSQGSFGCSPGSQIVANVALNKGQASSQSSKPSLNLNNPPMEGTGISLAQFMSPRRQVTSGLATRPRMPNNSFPPNISTLSSPVGMTSSACNNNNRSYSNIPVTSLQGMNEGPNNSVGFSASSPVLRQMSSQNSPSRLNIQPAKAESKDNKEIASTLNEMIQSDNSSSDGKPLDSGLLHNNDRLSDGDSKYSQTSHKLVQLLTTTAEQQLRHADIDTSCKDVLSCTGTSNSASANSSGGSCPSSHSSLTARHKILHRLLQEGSPSDITTLSVEPDKKDSASTSVSVTGQVQGNSSIKLELDASKKKESKDHQLLRYLLDKDEKDLRSTPNLSLDDVKVKVEKKEQMDPCNTNPTPMTKATPEEIKLEAQSQFTADLDQFDQLLPTLEKAAQLPGLCETDRMDGAVTSVTIKSEILPASLQSATARPTSRLNRLPELELEAIDNQFGQPGTGDQIPWTNNTVTAINQSKSEDQCISSQLDELLCPPTTVEGRNDEKALLEQLVSFLSGKDETELAELDRALGIDKLVQGGGLDVLSERFPPQQATPPLIMEERPNLYSQPYSSPFPTANLPSPFQGMVRQKPSLGTMPVQVTPPRGAFSPGMGMQPRQTLNRPPAAPNQLRLQLQQRLQGQQQLIHQNRQAILNQFAATAPVGINMRSGMQQQITPQPPLNAQMLAQRQRELYSQQHRQRQLIQQQRAMLMRQQSFGNNLPPSSGLPVQTGNPRLPQGAPQQFPYPPNYGTNPGTPPASTSPFSQLAANPEASLANRNSMVSRGMTGNIGGQFGTGINPQMQQNVFQYPGAGMVPQGEANFAPSLSPGSSMVPMPIPPPQSSLLQQTPPASGYQSPDMKAWQQGAIGNNNVFSQAVQNQPTPAQPGVYNNMSITVSMAGGNTNVQNMNPMMAQMQMSSLQMPGMNTVCPEQINDPALRHTGLYCNQLSSTDLLKTEADGTQQVQQVQVFADVQCTVNLVGGDPYLNQPGPLGTQKPTSGPQTPQAQQKSLLQQLLTE
Question: Which “effect on reporter construct activity in the absence of PR binding site” value ([1]; ERE2-TATA-CAT reporter with hPRB, with or without ligand) does the source give for B1 here?
Answer: no effect

Question: What about the “effect on PR transcriptional activity” value ([1]; HeLa cells, 3 μg SRC-1, R5020 2×10^−8 M, PRE2-TATA-CAT) of the same molecule?
Answer: enhance

Question: What about the “effect on RU486-antagonized receptor transcriptional activity” value ([1]; HeLa cells, SRC-1 coexpressed, R5020 plus RU486) of the same molecule?
Answer: unable to augment and/or recover to any extent

Question: And the “induction over the hormone-induced receptor activity” value ([1]; HeLa cells, full-length SRC-1 cDNA (3 μg) coexpressed with hPR, 2×10^−8 M R5020, mean of seven experiments ± SEM)?
Answer: 14.0±3.3 fold

Question: And the “activity of ligand-free hPR on the reporter” value ([1]; HeLa cells, no hormone, in the absence or presence of SRC-1)?
Answer: minimal activity

Question: And the “enhancement of hormone-induced transcriptional activity” value ([1]; coexpression of SRC-1 with receptor in mammalian cells, summary statements)?
Answer: > 10 fold

Question: What about the “effect on GAL4-VP16 transcriptional activity” value [2] of the same molecule?
Answer: enhanced

Question: What about the “effect on GR transcriptional activity” value [3] of the same molecule?
Answer: enhance

Question: What about the “reversal of hER squelching of hPR transactivation” value ([4]; HeLa cells, increasing amounts of SRC-1, dose-dependent, in the presence of estrogen) of the same molecule?
Answer: ~16 fold

Question: What about the “stimulation of PR transactivation” value ([4]; highest concentration of SRC-1 (2 μg), without estrogen squelching) of the same molecule?
Answer: ~5 fold
